Experimental findings from PMC4812828 (Nature structural & molecular biology, 2016) are described below.

The target of this test is T1, Mcm5 (S. cerevisiae, UniProt P29496 1-775).
T1 sequence: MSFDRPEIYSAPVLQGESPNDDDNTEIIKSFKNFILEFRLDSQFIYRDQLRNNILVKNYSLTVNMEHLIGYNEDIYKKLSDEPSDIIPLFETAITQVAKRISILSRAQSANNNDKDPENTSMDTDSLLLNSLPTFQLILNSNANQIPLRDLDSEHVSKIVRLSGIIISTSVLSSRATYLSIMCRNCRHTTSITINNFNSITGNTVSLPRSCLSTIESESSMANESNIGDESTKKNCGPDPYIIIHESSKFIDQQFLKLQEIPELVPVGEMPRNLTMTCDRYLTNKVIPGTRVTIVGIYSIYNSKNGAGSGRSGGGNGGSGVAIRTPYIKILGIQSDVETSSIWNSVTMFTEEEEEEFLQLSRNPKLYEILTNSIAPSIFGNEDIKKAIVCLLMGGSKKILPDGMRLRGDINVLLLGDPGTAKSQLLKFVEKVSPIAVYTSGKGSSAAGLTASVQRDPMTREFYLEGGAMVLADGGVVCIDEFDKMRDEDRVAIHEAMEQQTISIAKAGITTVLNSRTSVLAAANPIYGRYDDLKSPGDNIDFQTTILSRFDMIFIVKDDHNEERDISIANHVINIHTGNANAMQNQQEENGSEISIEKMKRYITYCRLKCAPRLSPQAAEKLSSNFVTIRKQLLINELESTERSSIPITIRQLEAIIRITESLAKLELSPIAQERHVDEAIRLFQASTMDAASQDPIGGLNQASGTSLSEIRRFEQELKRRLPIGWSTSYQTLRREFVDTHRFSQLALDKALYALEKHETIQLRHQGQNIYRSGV
The test is described as follows: cryo-EM structure.

B1: Psf3 (natural protein)
chain: MGYYDIDDVLADGTEFPCKFQYDIPGLGYLENNPGRPITKNTKLSLPLWLARILAIVGGDEALVDEEPVPFVELLPPDMFSTKVMNAIKTDPVALDLHSINSHFFSLAIKWIMLFSEKELANVVSELLLQRAQELNHHASSLSIDLNADSTGKNSANTNIATSTFLLKLEEMEKEIYKKSHESYKDTKRWMFKK
For B1, the binding result was “binds”.
